Data on 48 sequences can be found in the supplement of paper PMC10899765.

Holding throughout (settings): 20 nM; 72 h
The test system of data set [1] is MCF10A. Nature of the data set: one-nucleolus phenotype percent effect (relative to siNT 0% and siNOL11 100%); higher = more cells with one nucleolus (ribosome biogenesis inhibition). The protocol: (§1)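 After 72 h, cells were fixed and stained with Hoechst and anti-fibrillarin, and nucleoli per nucleus were counted with CellProfiler. Values are plate-adjusted percent effect for the one-nucleolus and 5+ nucleoli phenotypes, normalised to siNT (0%) and to the positive controls siNOL11 or siKIF11 (100%), as the mean of biological triplicates. Percent viability is the nuclei count relative to siNT.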

Data set [2] deals with MCF10A. Put plainly: percent viability (nuclei count relative to siNT); higher = more viable cells. The procedure:
as §1

Data set [3] relates to MCF10A. Put plainly: 5+ nucleoli phenotype percent effect (relative to siNT 0% and siKIF11 100%); higher = more cells with five or more nucleoli. The protocol:
as §1

As for UCACAAAUCUAUAAUAUGCAGG [hsa-miR-4719], in data set [1], the “one-nucleolus phenotype percent effect” value was -19.7%. Moreover, the percent viability in data set [2] was 149%. Moreover, the “5+ nucleoli phenotype percent effect” value in data set [3] is 40.1%.
As for “UCACAACAACCUUGCAGGGUAGA [hsa-miR-5003-5p]”, the “one-nucleolus phenotype percent effect” value in data set [1] was -10.6%. Also, the percent viability in data set [2] came out at 80.1%. Further, the “5+ nucleoli phenotype percent effect” value in data set [3] turned out to be 16.9%.
Regarding UCACAAGGUAUUGACUGGCGUA [hsa-miR-4457], in data set [1], the “one-nucleolus phenotype percent effect” value was determined as 1.5%. In addition, the percent viability in data set [2] is 47.9%. Further, in data set [3], the “5+ nucleoli phenotype percent effect” value is -15.7%.
Taken in the same sequence, the figures for “UCACAAGUCAGGCUCUUGGGAC [hsa-miR-125b-2-3p]” were 59.8%, 37.1% and -44.2%.
On to UCACACCUGCCUCGCCCCCC [hsa-miR-1228-3p], for which the “one-nucleolus phenotype percent effect” value in data set [1] was found to be 5.12%. Besides, the percent viability in data set [2] stood at 64.7%. For the same sequence, the “5+ nucleoli phenotype percent effect” value in data set [3] is -13.8%.
With UCACAGUGAACCGGUCUCUUU [hsa-miR-128], the “one-nucleolus phenotype percent effect” value in data set [1] turned out to be 12.2%. In data set [2], the percent viability is 81.7%. Further, the “5+ nucleoli phenotype percent effect” value in data set [3] is -27.9%.
On to “UCACAGUGGUCUCUGGGAUUAU [hsa-miR-216a-3p]”, for which, in data set [1], the “one-nucleolus phenotype percent effect” value came out at 8.32%. Besides, the percent viability in data set [2] was determined as 29.5%. In addition, the “5+ nucleoli phenotype percent effect” value in data set [3] is -17.5%.
With “UCACCAGCCCUGUGUUCCCUAG [hsa-miR-1226-3p]”, the “one-nucleolus phenotype percent effect” value in data set [1] was 33.5%. In addition, in data set [2], the percent viability was 31.7%. For the same sequence, the “5+ nucleoli phenotype percent effect” value in data set [3] was -42.2%.
Taken in the same sequence, the figures for “UCACCCUGCAUCCCGCACCCAG [hsa-miR-3620-3p]” were -11.9%, 77% and 11.8%.
Taken in the same sequence, the figures for “UCACCUGACCUCCCAUGCCUGU [hsa-miR-3622a-3p]” were -15.8%, 103% and 33.1%.
Taken in the same sequence, the figures for “UCACCUGAGCUCCCGUGCCUG [hsa-miR-3622b-3p]” were -20.9%, 107% and 29.9%.
For the sequence UCACCUGGCUGGCCCGCCCAG [hsa-miR-6765-3p], the “one-nucleolus phenotype percent effect” value in data set [1] is -20.5%. For the same sequence, the percent viability in data set [2] is 63.1%. In addition, the “5+ nucleoli phenotype percent effect” value in data set [3] turned out to be 30.1%.
Taken in the same sequence, the figures for UCACGCGGAGAGAUGGCUUUG [hsa-miR-3186-3p] were 11.3%, 20.7% and -13.4%.
On to UCACUACCUGACAAUACAGU [hsa-miR-4999-3p], for which the “one-nucleolus phenotype percent effect” value in data set [1] is -25.2%. The percent viability in data set [2] turned out to be 52.7%. The “5+ nucleoli phenotype percent effect” value in data set [3] stood at 0.698%.
For UCACUCCUCUCCUCCCGUCUU [hsa-miR-483-3p], the “one-nucleolus phenotype percent effect” value in data set [1] was found to be 16.3%. Moreover, in data set [2], the percent viability was determined as 45.3%. Also, in data set [3], the “5+ nucleoli phenotype percent effect” value was -26.9%.
For the sequence UCACUCUCACCUUGCUUUGC [hsa-miR-4639-3p], in data set [1], the “one-nucleolus phenotype percent effect” value was -11.5%. In addition, in data set [2], the percent viability is 63%. Also, the “5+ nucleoli phenotype percent effect” value in data set [3] worked out at 3.2%.
Regarding UCACUGUUCAGACAGGCGGA [hsa-miR-1208], the “one-nucleolus phenotype percent effect” value in data set [1] was -21.6%. In data set [2], the percent viability stood at 112%. Further, the “5+ nucleoli phenotype percent effect” value in data set [3] worked out at 20.6%.
Taken in the same sequence, the figures for “UCAGAACAAAUGCCGGUUCCCAGA [hsa-miR-589-3p]” were -20.8%, 115% and 5.52%.
“UCAGAUGAUCUAAAGGCCUAUA [hsa-miR-1245b-3p]”: the “one-nucleolus phenotype percent effect” value in data set [1] worked out at 9.29%. In addition, the percent viability in data set [2] stood at 34.5%. Further, the “5+ nucleoli phenotype percent effect” value in data set [3] is -4.77%.
Taken in the same sequence, the figures for UCAGCAAACAUUUAUUGUGUGC [hsa-miR-545-3p] were -21.8%, 124% and 27.8%.
Regarding “UCAGCACCAGGAUAUUGUUGGAG [hsa-miR-3065-3p]”, the “one-nucleolus phenotype percent effect” value in data set [1] was -25.2%. For the same sequence, the percent viability in data set [2] was found to be 67.2%. For the same sequence, in data set [3], the “5+ nucleoli phenotype percent effect” value came to 62.3%.
For the sequence “UCAGCAGGCAGGCUGGUGCAGC [hsa-miR-3619-5p]”, the “one-nucleolus phenotype percent effect” value in data set [1] is 56.3%. Further, in data set [2], the percent viability was 27.1%. Also, the “5+ nucleoli phenotype percent effect” value in data set [3] was -36.5%.
For “UCAGCAUUCAUUGGCACCAGAGA [hsa-miR-7157-5p]”, in data set [1], the “one-nucleolus phenotype percent effect” value turned out to be 13.5%. The percent viability in data set [2] worked out at 30.6%. Also, the “5+ nucleoli phenotype percent effect” value in data set [3] was -18.8%.
Taken in the same sequence, the figures for UCAGCUACUACCUCUAUUAGG [hsa-miR-5690] were -20.3%, 105% and 15.5%.
With UCAGCUCCUCUCUACCCACAG [hsa-miR-6736-3p], in data set [1], the “one-nucleolus phenotype percent effect” value stood at 8.25%. Also, in data set [2], the percent viability was 37.4%. For the same sequence, the “5+ nucleoli phenotype percent effect” value in data set [3] is -12.2%.
For UCAGCUGGCCCUCAUUUC [hsa-miR-1207-3p], in data set [1], the “one-nucleolus phenotype percent effect” value worked out at 65%. Besides, the percent viability in data set [2] worked out at 15.3%. In data set [3], the “5+ nucleoli phenotype percent effect” value was -48.5%.
For “UCAGGACACUUCUGAACUUGGA [hsa-miR-5000-3p]”, the “one-nucleolus phenotype percent effect” value in data set [1] was -10.1%. The percent viability in data set [2] is 53.5%. In data set [3], the “5+ nucleoli phenotype percent effect” value worked out at 20.7%.
Consider “UCAGGCAAAGGGAUAUUUACAGA [hsa-miR-4742-5p]”, for which the “one-nucleolus phenotype percent effect” value in data set [1] was -11.1%. Moreover, the percent viability in data set [2] amounted to 45.1%. In addition, in data set [3], the “5+ nucleoli phenotype percent effect” value turned out to be 6.44%.
Taken in the same sequence, the figures for UCAGGCAGUGUGGGUAUCAGAU [hsa-miR-4692] were 23.2%, 23.4% and -11.4%.
As to UCAGGCCAGGCACAGUGGCUCA [hsa-miR-1972], the “one-nucleolus phenotype percent effect” value in data set [1] was -4.54%. Besides, in data set [2], the percent viability worked out at 30.6%. Also, the “5+ nucleoli phenotype percent effect” value in data set [3] came to 17.7%.
Turning to UCAGGCCUCUUUCUACCUU [hsa-miR-4650-5p], the “one-nucleolus phenotype percent effect” value in data set [1] is -4.86%. Further, in data set [2], the percent viability was 19.7%. Also, in data set [3], the “5+ nucleoli phenotype percent effect” value is 12.7%.
Regarding UCAGGCUCAGUCCCCUCCCGAU [hsa-miR-484], the “one-nucleolus phenotype percent effect” value in data set [1] is -7.07%. Besides, the percent viability in data set [2] is 97%. For the same sequence, the “5+ nucleoli phenotype percent effect” value in data set [3] worked out at 40.7%.
In the case of UCAGGGAGUCAGGGGAGGGC [hsa-miR-4270], in data set [1], the “one-nucleolus phenotype percent effect” value stood at 36.8%. Further, the percent viability in data set [2] was 9.71%. In addition, the “5+ nucleoli phenotype percent effect” value in data set [3] was -37.6%.
Regarding UCAGGGUUGGUAGGGGUUGCU [hsa-miR-6823-5p], in data set [1], the “one-nucleolus phenotype percent effect” value is 19.8%. In addition, the percent viability in data set [2] was determined as 22.1%. The “5+ nucleoli phenotype percent effect” value in data set [3] is -11.9%.
Consider “UCAGGUGUGGAAACUGAGGCAG [hsa-miR-3934-5p]”, for which the “one-nucleolus phenotype percent effect” value in data set [1] came to 10.5%. Moreover, the percent viability in data set [2] amounted to 42.8%. Moreover, the “5+ nucleoli phenotype percent effect” value in data set [3] is -10.9%.
In the case of UCAGUAAAUGUUUAUUAGAUGA [hsa-miR-545-5p], the “one-nucleolus phenotype percent effect” value in data set [1] is -24.2%. Further, the percent viability in data set [2] was found to be 175%. For the same sequence, in data set [3], the “5+ nucleoli phenotype percent effect” value stood at 38.8%.
Turning to “UCAGUCACAUAUCUAGUGUCUA [hsa-miR-4704-3p]”, the “one-nucleolus phenotype percent effect” value in data set [1] is 5.92%. In addition, in data set [2], the percent viability amounted to 54.4%. Besides, in data set [3], the “5+ nucleoli phenotype percent effect” value was found to be 10.1%.
Consider “UCAGUGCACUACAGAACUUUGU [hsa-miR-148a-3p]”, for which the “one-nucleolus phenotype percent effect” value in data set [1] is -16.7%. Besides, the percent viability in data set [2] stood at 88.9%. Also, the “5+ nucleoli phenotype percent effect” value in data set [3] was determined as 68.2%.
As to “UCAGUGCAUCACAGAACUUUGU [hsa-miR-148b-3p]”, the “one-nucleolus phenotype percent effect” value in data set [1] was -21.1%. Also, the percent viability in data set [2] amounted to 126%. The “5+ nucleoli phenotype percent effect” value in data set [3] amounted to 68.9%.
UCAGUGCAUGACAGAACUUGG [hsa-miR-152]: the “one-nucleolus phenotype percent effect” value in data set [1] is -26.4%. The percent viability in data set [2] stood at 145%. Also, the “5+ nucleoli phenotype percent effect” value in data set [3] worked out at 69.9%.
As for UCAGUGUCUGGAUUUCCUAG [hsa-miR-6733-3p], in data set [1], the “one-nucleolus phenotype percent effect” value was -2.06%. The percent viability in data set [2] is 70.7%. In addition, the “5+ nucleoli phenotype percent effect” value in data set [3] was -16.2%.
As for UCAGUUCCAGGCCAACCAGGCU [hsa-miR-584-3p], the “one-nucleolus phenotype percent effect” value in data set [1] was determined as 19.6%. The percent viability in data set [2] came out at 43.9%. In data set [3], the “5+ nucleoli phenotype percent effect” value turned out to be 3.58%.
As for UCAUAUUGCUUCUUUCU [hsa-miR-1279], the “one-nucleolus phenotype percent effect” value in data set [1] is -26.6%. In addition, the percent viability in data set [2] worked out at 187%. Moreover, the “5+ nucleoli phenotype percent effect” value in data set [3] amounted to 35.8%.
For UCAUCCCCCUCGCCCUCUCAG [hsa-miR-6729-3p], the “one-nucleolus phenotype percent effect” value in data set [1] was -21.1%. In addition, in data set [2], the percent viability was 58.8%. Besides, the “5+ nucleoli phenotype percent effect” value in data set [3] was determined as 10.2%.
Take UCAUCCUCGUCUCCCUCCCAG [hsa-miR-5196-3p]: the “one-nucleolus phenotype percent effect” value in data set [1] is -13.1%. Also, in data set [2], the percent viability is 44.3%. In data set [3], the “5+ nucleoli phenotype percent effect” value is -6.21%.
For UCAUUAUAUGUAUGAUCUGGAC [hsa-miR-4528], the “one-nucleolus phenotype percent effect” value in data set [1] is -16.8%. Also, in data set [2], the percent viability came out at 57.6%. Besides, the “5+ nucleoli phenotype percent effect” value in data set [3] was -2.39%.
Taken in the same sequence, the figures for UCAUUUAUCUGUUGGGAAGCUA [hsa-miR-4729] were 1.2%, 53.1% and -14.5%.
As to UCAUUUUUGUGAUGUUGCAGCU [hsa-miR-153-5p], the “one-nucleolus phenotype percent effect” value in data set [1] is -16.7%. Moreover, in data set [2], the percent viability was 55%. Besides, the “5+ nucleoli phenotype percent effect” value in data set [3] was 3.53%.
